The text below walks through data of PMC8758478.

Assay [1] deals with recombinant α-secretase N-terminal soluble form of APP695 (sAPPα^695) (human). As to the kind of experiment: other fluorescence titration; native tryptophan fluorescence, excitation 295 nm, change of intensity at 340 nm against Lf concentration, fitted to two independent sites on an acceptor; 96-well quartz microplate.
For assay [2] the target is unchanged. As to the kind of experiment: AUC; sedimentation velocity, 50,000 rpm, absorbance at 280 nm, c(S) model (Sedfit); APP 2.5 μM with holo-Lf 2.5, 3.75, 5 μM or apo-Lf 2.5, 12.5 μM; weight average sedimentation coefficients fitted to a two-site binding model.

With “holo-lactoferrin (iron-bound form of Lf) (natural protein)”, in assay [1], the Kd1:1 (first site, two-site model) came to 690 nM and the Kd1:2 (second site, two-site model) amounted to 9.4 µM. Further, in assay [2], the Kd1:1 (first site, two-site binding model) was found to be 620 nM; the Kd1:2 (second site, two-site binding model) was found to be 8.2 µM; the stoichiometry N (Lf molecules per sAPPα695 molecule) came out at 2.
